The values that follow come from patent publication US20140223591A1.

Assay [1] deals with Gonadotrophin releasing hormone 1 (GnRH1) (UniProt P01148). As to the kind of experiment: SPR. (In general: In SPR one partner is held on a chip, and binding of the other changes the refractive index at the surface.)
The target is the same in assay [2]. As to the kind of experiment: SPR, Biacore T200; antibody captured on goat anti-mouse IgG on a CM5 chip, GnRH injected in 2-fold dilutions from 1024 nM.
Assay [3] shares this target. As to the kind of experiment: SPR (Biacore T200): antibody captured on goat anti-mouse IgG immobilized on a CM5 chip, GnRH injected in 2-fold dilutions from 1024 nM.

B1: HB-9094-HEK293T-IgG (antibody, V domains shown)
VH: QIQLVQSGPELKKPGETVKISCKASGYPFTNYGMNWVKQAPGKGLKWMGWINTYTGEPACADDFRGRFAISLETSARTAYLQINNLINEDTATYFCARTGGGRYNYGMDYWGQGTSVTVSS
VL: QIVLTQSPAIMSASPGEKVTITCSATSSVSYIHWFQQKPGTSPKLWIYSTSNLASGVPVRFSGSGSGTSYSLTISRMEAEDAATYYCQQRSSYPPTFGGGTKLEIKR
As usually defined, the Kd is a measure of binding affinity in units of concentration. What is called koff is the first-order rate constant of dissociation. A high value points to fast dissociation. Broadly, the kon is a measure of how fast the partners come together. Higher therefore signals faster complex formation. Regarding B1, in assay [1], the dissociation constant Kd was 0.918 nM, the koff turned out to be 0.000249 s⁻¹ and the kon amounted to 272000 M⁻¹ s⁻¹. In addition, in assay [2], the Kd stood at 0.918 nM, the koff amounted to 0.000249 s⁻¹ and the kon amounted to 272000 M⁻¹ s⁻¹. Moreover, the Kd in assay [3] was 0.27 nM.

B2: SMI41 ascites IgG (antibody, V domains shown)
VH: QVTLKESGPGILRPSQTLDLTCSFSGFSLSTSGLSVGWIRQPSGKGLEWLAHIWWDDVKYFNPSLKSRLTISKDSSRNQVFLKITSVDTADSATYHCTRGPLGHGFDYWGQGTLVTVSA
VL: DVVMTQTPLSLPVSLGDQAFISCRSSQSLVHSDGNSYLHWYLQKPGQSPKLLIYKVSNRFSGVPDRFSGSGSGTDFTLKISRVEAEDLGLYFCSQTTHVPWTFGGGTKLEIK
In assay [1], B2 showed a Kd of 0.819 nM, an off-rate constant (koff) of 0.00467 s⁻¹ and a kon of 8.99e+06 M⁻¹ s⁻¹.

B3: SMI41-HEK293T-IgG (antibody, V domains shown)
VH: QVTLKESGPGILRPSQTLDLTCSFSGFSLSTSGLSVGWIRQPSGKGLEWLAHIWWDDVKYFNPSLKSRLTISKDSSRNQVFLKITSVDTADSATYHCTRGPLGHGFDYWGQGTLVTVSA
VL: DVVMTQTPLSLPVSLGDQAFISCRSSQSLVHSDGNSYLHWYLQKPGQSPKLLIYKVSNRFSGVPDRFSGSGSGTDFTLKISRVEAEDLGLYFCSQTTHVPWTFGGGTKLEIKR
As to B3, in assay [1], the Kd was 0.592 nM, the koff came to 0.00282 s⁻¹ and the kon was 4.76e+06 M⁻¹ s⁻¹. In assay [2], this molecule returned a Kd of 0.592 nM, a koff of 0.00282 s⁻¹ and a kon of 4.76e+06 M⁻¹ s⁻¹.
